Reference: the supplement of paper PMC7877785
± gives the uncertainty stated by the source.

Assay: self-splicing fitness, log relative to wild type (ln ratio); higher = more splicing; Tetrahymena group I intron in knt gene, E. coli kanamycin selection, DiMSum; sequences stand for … in CUCUCU…GGAGGGAAAAGUUAUCAGGCAUGCACCUGGUAGCUAGUCUUUAAACCAAUAGAUUGCAUCGGUUUAAAAGGCAAGACCGUCAAAUUGCGGGAAAGGGGUCAACAGCCGUUCAGUACCAAGUCUCAGGGGAAACUUUGAGAUGGCCUUGCAAAGGGUAUGGUAAUAAGCUGACGGACAUGGUCCUAACCACGCAGCCAAGUCCUAAGUCAACAGAUCUUCUGUUGAUAUGGAUGCAGUUCACAGACUAAAUGUCGGUCGGGGAAGAUGUAUUCUUCUCAUAAGAUAUAGUCGGACCUCUCCUUAAUGGGAGCUAGCGGAUGAAGUGAUGCAACACUGGAGCCGCUGGGAACUAAUUUGUAUGCGAAAGUAUAUUGAUUAGUUUUGGAGUACUCGUGGUCG
Method in brief: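 The eight P1ex-region nucleotides of an intron in the knt kanamycin-resistance gene on pET-22b(+) were all randomised and the library put into E. coli BL21(DE3). Six replicate transformations were grown overnight at 37°C or 30°C on LB agar with or without 25 μg/mL kanamycin, together with 100 μg/mL carbenicillin, 50 μM IPTG and 0.2% rhamnose. Colonies were pooled and amplicon-sequenced on an Illumina HiSeq 2500. Fitness from DiMSum is the error-weighted combination of wild-type-normalised replicate fold changes, kanamycin over none.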

Sequence | self-splicing fitness (ln) (30 °C) | self-splicing fitness (ln) (37 °C)
CAGAAGCAAUAUUACGUUUC | -3.38 ± 0.29 | -2.12 ± 0.23
GCAUAGCAAUAUUACGGACC | -0.439 ± 0.1 | -0.576 ± 0.093
CUCGAGCAAUAUUACGGGCA | -2.35 ± 0.36 | 0.194 ± 0.26
GUAUAGCAAUAUUACGGCCA | -0.388 ± 0.23 | 0.0249 ± 0.18
UCUAAGCAAUAUUACGUCCA | -2 ± 0.14 | -0.707 ± 0.13
CGUCAGCAAUAUUACGAAGG | -0.693 ± 0.074 | -0.652 ± 0.11
GAUUAGCAAUAUUACGGAGU | -2.77 ± 0.19 | -2.5 ± 0.23
UGCAAGCAAUAUUACGGAUU | -2.63 ± 0.11 | -1.84 ± 0.14
ACAUAGCAAUAUUACGAGGG | -3.52 ± 0.19 | -3.05 ± 0.29
UUGGAGCAAUAUUACGCAGC | -3.49 ± 0.49 | -1.51 ± 0.36
CGCGAGCAAUAUUACGUGCU | -2.71 ± 0.14 | -2 ± 0.22
AGCCAGCAAUAUUACGAAUU | -3.14 ± 0.15 | -1.44 ± 0.11
UUUCAGCAAUAUUACGUUUA | -1.34 ± 0.11 | -0.334 ± 0.13
UCCAAGCAAUAUUACGCGUU | -4.5 ± 0.19 | -2.33 ± 0.15
CGACAGCAAUAUUACGUUAA | -3.04 ± 0.22 | -2.19 ± 0.18
AGCUAGCAAUAUUACGGUUA | -0.191 ± 0.067 | 0.383 ± 0.073
CAUUAGCAAUAUUACGGCAG | -0.186 ± 0.078 | -0.0776 ± 0.11
GCAAAGCAAUAUUACGACCA | -0.267 ± 0.15 | -0.678 ± 0.19
AGACAGCAAUAUUACGUUGC | -3.73 ± 0.24 | -3.26 ± 0.37
GCUAAGCAAUAUUACGGGGU | -2.06 ± 0.18 | -3.04 ± 0.25
CCGAAGCAAUAUUACGUCGC | -3.18 ± 0.26 | -3.07 ± 0.34
AGCCAGCAAUAUUACGGUAC | -2.97 ± 0.2 | -1.24 ± 0.13
CUCAAGCAAUAUUACGUAUA | -3.98 ± 0.19 | -2.59 ± 0.16
GGUUAGCAAUAUUACGAAUG | -0.2 ± 0.3 | -0.491 ± 0.33
AUUUAGCAAUAUUACGUCUG | -1.73 ± 0.11 | -1.15 ± 0.11

Sequence | self-splicing fitness (ln) (30 °C) | self-splicing fitness (ln) (37 °C)
UUGCAGCAAUAUUACGGACG | -0.806 ± 0.17 | -1.1 ± 0.23
CUGAAGCAAUAUUACGACUU | -3.13 ± 0.35 | -1.75 ± 0.3
UACUAGCAAUAUUACGGCCC | -1.47 ± 0.16 | -2.36 ± 0.28
ACUUAGCAAUAUUACGCUUU | -1.69 ± 0.088 | -1.42 ± 0.14
UAAAAGCAAUAUUACGCGAG | -0.897 ± 0.075 | -0.186 ± 0.095
GUACAGCAAUAUUACGCGCA | -1.07 ± 0.11 | -0.616 ± 0.12
AGCGAGCAAUAUUACGUUGC | – | -3.69 ± 0.42
GUUAAGCAAUAUUACGCUGG | -0.613 ± 0.17 | -0.0646 ± 0.2
CCUAAGCAAUAUUACGUACC | -4.63 ± 0.46 | -2.75 ± 0.31
AGGUAGCAAUAUUACGUCAC | -3.764 ± 0.036 | -2.23 ± 0.042
CUAGAGCAAUAUUACGAUAA | -2.85 ± 0.21 | -1.3 ± 0.23
GGUUAGCAAUAUUACGAUUG | -1.56 ± 0.19 | -1.1 ± 0.21
GGAGAGCAAUAUUACGGCGU | -1.58 ± 0.2 | -1.17 ± 0.26
GCCAAGCAAUAUUACGGAAA | -1.46 ± 0.16 | -1.14 ± 0.13
UAAUAGCAAUAUUACGUAAC | – | -2.03 ± 0.38
UAGCAGCAAUAUUACGCGAC | -3.54 ± 0.21 | -1.67 ± 0.21
UUCCAGCAAUAUUACGCCAA | -0.739 ± 0.12 | -0.362 ± 0.17
GACCAGCAAUAUUACGUGCC | -0.32 ± 0.11 | -0.217 ± 0.13
CGGAAGCAAUAUUACGUGAA | -3.4 ± 0.17 | -1.66 ± 0.15
UACGAGCAAUAUUACGGAAC | -4.04 ± 0.42 | -3.02 ± 0.35
AUGCAGCAAUAUUACGCCCA | -1.11 ± 0.12 | 0.0949 ± 0.14
ACAUAGCAAUAUUACGGUGC | -3.84 ± 0.25 | -2.54 ± 0.21
CCAGAGCAAUAUUACGGUGA | -3.55 ± 0.2 | -2.6 ± 0.23
GCUAAGCAAUAUUACGCCGG | -2.65 ± 0.2 | -1.33 ± 0.19
GUCCAGCAAUAUUACGUUCG | -1.26 ± 0.055 | -0.749 ± 0.079

Sequence | self-splicing fitness (ln) (30 °C) | self-splicing fitness (ln) (37 °C)
GAGUAGCAAUAUUACGAUAA | -2.41 ± 0.25 | -1.18 ± 0.2
AUCAAGCAAUAUUACGAGAU | -2.81 ± 0.16 | -2.67 ± 0.21
UUAUAGCAAUAUUACGUCAA | -1.61 ± 0.26 | -0.961 ± 0.22
AGAGAGCAAUAUUACGCGGC | -2.71 ± 0.26 | –
AGAGAGCAAUAUUACGCUUU | -3.54 ± 0.41 | -2.52 ± 0.45
AAACAGCAAUAUUACGUAUU | -2.17 ± 0.089 | -1.53 ± 0.097
CUCGAGCAAUAUUACGGAAA | -2.9 ± 0.28 | -1.37 ± 0.16
CUGCAGCAAUAUUACGCUUU | -4.46 ± 0.28 | -2.6 ± 0.26
CGGCAGCAAUAUUACGAACA | -0.789 ± 0.096 | -0.204 ± 0.12
GAGUAGCAAUAUUACGGCAU | -0.177 ± 0.089 | 0.37 ± 0.11
ACAUAGCAAUAUUACGUGAU | -1.7 ± 0.061 | -1.2 ± 0.088
AGAAAGCAAUAUUACGCAGC | -2.92 ± 0.2 | -2.33 ± 0.2
AACUAGCAAUAUUACGCAGG | -2.99 ± 0.15 | -1.66 ± 0.14
AAGAAGCAAUAUUACGGGUC | -4.04 ± 0.35 | -1.69 ± 0.21
AAGCAGCAAUAUUACGAAAA | -2.81 ± 0.25 | -1.77 ± 0.16
CGUCAGCAAUAUUACGGUUC | -3.67 ± 0.31 | -0.0181 ± 0.15
AUCAAGCAAUAUUACGAAUG | -3.16 ± 0.13 | -0.57 ± 0.1
UAAUAGCAAUAUUACGGCGU | -2.6 ± 0.19 | -1.6 ± 0.24
UGUGAGCAAUAUUACGGGUG | -2.6 ± 0.14 | -1.9 ± 0.13
UCAGAGCAAUAUUACGUCUU | -3.53 ± 0.32 | -2.53 ± 0.36
UGUAAGCAAUAUUACGUAAC | -2.22 ± 0.15 | -2.91 ± 0.4
CCUUAGCAAUAUUACGGGGC | -3.39 ± 0.27 | -3.06 ± 0.32
CAUUAGCAAUAUUACGGAUG | -3.67 ± 0.39 | -3.03 ± 0.25
ACAGAGCAAUAUUACGUUUG | -3.85 ± 0.25 | -3.07 ± 0.24
CUUUAGCAAUAUUACGUGUG | -1.6 ± 0.094 | -0.61 ± 0.08
